B1: 26S proteasome non-ATPase regulatory subunit 11 (Drosophila melanogaster (Fruit fly)), Q7KLV9-1 (parent)
chain: MAGATLFERAQALSSVNREEQDSSLLNKLVRDQEGAENDEERIRIKEQGILQQGELYKQEGKAKELADLIKVTRPFLSSISKAKAAKLVRSLVDMFLDMDAGTGIEVQLCKDCIEWAKQEKRTFLRQSLEARLIALYFDTALYTEALALGAQLLRELKKLDDKNLLVEVQLLESKTYHALSNLPKARAALTSARTTANAIYCPPKVQGALDLQSGILHAADERDFKTAFSYFYEAFEGFDSVDSVKALTSLKYMLLCKIMLGQSDDVNQLVSGKLAITYSGRDIDAMKSVAEASHKRSLADFQAALKEYKKELAEDVIVQAHLGTLYDTMLEQNLCRIIEPYSRVQVAHVAESIQLPMPQVEKKLSQMILDKKFSGILDQGEGVLIVFEETPVDKTYERVLETIQSMGKVVDTLYQKAKKLS
partner: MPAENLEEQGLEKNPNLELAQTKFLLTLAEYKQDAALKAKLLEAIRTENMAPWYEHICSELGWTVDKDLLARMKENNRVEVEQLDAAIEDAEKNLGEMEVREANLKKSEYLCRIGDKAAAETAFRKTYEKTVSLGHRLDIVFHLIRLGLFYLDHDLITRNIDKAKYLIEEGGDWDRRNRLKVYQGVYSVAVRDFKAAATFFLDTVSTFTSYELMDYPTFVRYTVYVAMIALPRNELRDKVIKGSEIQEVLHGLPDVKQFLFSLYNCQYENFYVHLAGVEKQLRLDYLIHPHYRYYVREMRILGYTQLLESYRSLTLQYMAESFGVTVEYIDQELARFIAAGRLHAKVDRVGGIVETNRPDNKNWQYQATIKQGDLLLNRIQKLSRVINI

Variants of: B1
Conditions: with psmd6_drome Rpn7, Q9V3G7

Row | Variant | effect of a mutation on the interaction
1 | S366K;I369A;L370A | disrupting interaction strength

Reference: IntAct's records for PubMed 22187461
